Measurements from patent publication US11629364B2, “Methods for synthesizing anticoagulant polysaccharides” (OPTIMVIA, LLC, priority 2019, dated 2023).

Key:
[1] = 3OST activity: 3-O sulfated products detected by LCMS after lyase digestion; type: biochemical; conditions: for 3OST activity: N,2,3,6-HS products by MS and/or NMR: procedures of Example 5 and/or Example 6, expected
Protocol: A study was conducted in accordance with embodiments of the present disclosure to confirm 3OST activity of enzymes comprising the amino acid sequence of SEQ ID NO: 24, SEQ ID NO: 26, or SEQ ID NO: 28 by detecting the presence of 3-O sulfated polysaccharide products as a result of their sulfotransfer reaction, using a reaction, using a similar LCMS procedure as in Example 3, except that the sulfo acceptor polysaccharide was commercially-available heparin (CAS code: 9041-08-1, available from Millipore Sigma). Even though the unmodified heparin contains ˜3.5% (w/w) of 3-O sulfated glucosamine residues, about ˜60% of the glucosamine residues are N,6-sulfated and are adjacent to a 2-O sulfated hexuronic acid residue, as in Formula X. Consequently, these N,6-sulfated glucosamine residues can still be 3-O sulfated.

[2] = 2OST activity: 2-O sulfated products detected by LCMS after lyase digestion; type: biochemical; conditions: procedures of Example 3; expected
Protocol: A study was conducted in accordance with embodiments of the present disclosure to confirm 2OST activity of enzymes comprising the amino acid sequence of SEQ ID NO: 14 or SEQ ID NO: 16 by detecting the presence of 2-O sulfated polysaccharide products formed as a result of their sulfotransfer reaction, using a similar procedure as in Example 2, except that the sulfo acceptor polysaccharide was commercial heparin in which the 2-O sulfate groups had been selectively removed by chemical means (product DSH001/2, available from Galen Laboratory Supplies) and analysis of each of the digested samples containing sulfated products was conducted using mass spectrometry, coupled with SAX-based high performance liquid chromatography (LCMS).
Disaccharides obtained by digesting the 2-O sulfated products using the carbon-oxygen lyases having the amino acid sequence of SEQ ID NO: 30, SEQ ID NO: 31, and SEQ ID NO: 32 and according to the procedure described above in Example 2 were quantified on a Shimadzu LCMS-8050 Triple Quadrupole Liquid Chromatograph Mass Spectrometer. 100 ng of each of the digested samples, diluted in 10 mM ammonium bicarbonate (pH 10). The disaccharides were separated on a Thermo Hypercarb HPLC column (100×2.1 mm, 5 μm). […]

B1: SEQ ID NO: 24: engineered aryl sulfate-dependent 3OST enzyme, mutant of isoform 1 of the human 3OST enzyme (protein)
chain: MGTASNGSTQQLPQTIIIGVGHGGTRALLEMLSLHPDVAAAENEVHFFDWEEHYSQGLGWYLTQMPFSSPHQLTVEKTHSYFTSPKVPERIHSMNPTIRLLLILRDPSERVLSAYTHMLYNHLQKHKPYPPIEDLLMRDGRLNLDYVGLNRSLYHAHMLNWLRFFPLGHIHIVDGDRLIRDPFPEIQKVERFLKLSPQINASNFYFNKTKGFYCLRDSGKDRCLHESKGRAHPQVDPKLLDKLHEYFHEPNKKFFKLVGRTFDWH
modifications: Amino acid sequence encoding for engineered arylsulfate-dependent 3-O-sulfotransferase variant 1
notes: engineered aryl sulfate-dependent 3OST enzyme, mutant of isoform 1 of the human 3OST enzyme
In the case of B1, the “abundance of 3-O sulfation in product” value ([1]; relative to the commercial heparin standard) is reported as “higher abundance of 3-O sulfation”.

B2: SEQ ID NO: 52: mutant of isoform 1 of the pig 3OST enzyme, SEQ ID NO: 24 mutations (protein)
chain: MGVAPNGSAQQLPQTIIIGVGHGGTRALLEMLSLHPDVAAAENEVHFFDWEEHYSHGLGWYLSQMPFSWPHQLTVEKTHSYFTSPKVPERVYSMNPSIRLLLILRDPSERVLSLGTHLFYVHMQKHKPYPSIEEFLVRDGRLNVDYTGLNRSLYHVHMQNWLRFFPLRHIHIVDGDRLIRDPFPEIQKVERFLKLSPQINASNFYFNKTKGFYCLRDSGRDRCLHESKGRAHPQVDPKLLNKLHEYFHEPNKKFFELVGRTFDWH
modifications: Amino acid sequence encoding for engineered arylsulfate-dependent 3-O-sulfotransferase variant 5
With B2 the “3OST activity: N,2,3,6-HS products by MS and/or NMR” value (from here on “3OST activity: N,2,3,6-HS products”) [1] was “confirm the presence of N,2,3,6-HS products”.

B3: SEQ ID NO: 53: mutant of isoform 1 of the pig 3OST enzyme, SEQ ID NO: 26 mutations (protein)
chain: MGVAPNGSAQQLPQTIIIGVGHGGTRALLEMLSLHPDVAAAENEVHFFDWEEHYSHGLGWYLSQMPFSWPHQLTVEKTHSYFTSPKVPERVYSMNPSIRLLLILRDPSERVLSAYTHMFYNHMQKHKPYPSIEEFLVRDGRLNVDYTGLNRSLYHVHMQNWLRFFPLRHIHIVDGDRLIRDPFPEIQKVERFLKLSPQINASNFYFNKTKGFYCLRDSGRDRCLHESKGRAHPQVDPKLLNKLHEYFHEPNKKFFELVGRTFDWH
modifications: Amino acid sequence encoding for engineered arylsulfate-dependent 3-O-sulfotransferase variant 6
For B3, the “3OST activity: N,2,3,6-HS products” value [1] was “confirm the presence of N,2,3,6-HS products”.

B4: SEQ ID NO: 54: mutant of isoform 1 of the pig 3OST enzyme, SEQ ID NO: 28 mutations (protein)
chain: MGVAPNGSAQQLPQTIIIGVGHGGTRALLEMLSLHPDVAAAENEVHFFDWEEHYSHGLGWYLSQMPFSWPHQLTVEKTHSYFTSPKVPERVYSMNPSIRLLLILRDPSERVLSLGTHLFYVHMQKHKPYPSIEEFLVRDGRLNVDYTGLNRSLYHVHMQNWLRFFPLRHIHIVDGDRLIRDPFPEIQKVERFLKLSPQINASNFYFNKTKGFYCLRDSGRDRCLHESKGRAHPQVDPKLLNKLHEYFHEPNKKFFELVGRTFDWH
modifications: Amino acid sequence encoding for engineered arylsulfate-dependent 3-O-sulfotransferase variant 7
For B4, the “3OST activity: N,2,3,6-HS products” value [1] was “confirm the presence of N,2,3,6-HS products”.

B5: SEQ ID NO: 41: mutant of the human 2OST enzyme carrying the SEQ ID NO: 14 mutations (protein)
chain: MDEEEDMVIIYNRVPHTASTSFTNIAYDLCAKNKYHVLHINTTKNNPVMSLQDQVRFVKNITSWKEMKPGFYHGHVSYLDFAKFGVKKKPIYINVIRDPIERLVSYYYHLRFGDDYRPGLRRRKQGDKKTFDECVAEGGSDCAPEKLWLQIPFFCGHSSECWNVGSRWAMDQAKYNLINEYFLVGVTEELEDFIMLLEAALPRFFRGATELYRTGKKSHLHKTTEKKLPTKQTIAKLQQSDIWKMENEFYEFALEQFQFIRAHAVREKDGDLYILAQNFFYEKIYPKSN
modifications: Amino acid sequence encoding for engineered arylsulfate-dependent 2-O-sulfotransferase variant 3
In the case of B5, the “2OST activity: N,2-HS products by MS” value [2] is reported as “confirm the presence of N,2-HS products”.

B6: SEQ ID NO: 42: mutant of the human 2OST enzyme carrying the SEQ ID NO: 16 mutations (protein)
chain: MDEEEDMVIIYNRVHRTASHSFTNIAYDLCAKNKYHVLHINTTKGNPVMSLQDQVRFVKNITSWKEMKPGFYHGPVSYLDFAKFGVKKKPIYINVIRDPIERLVSYYYFLRFGSDKRPGLRMRKQGDKKTFDECVAEGGSDCAPEKLWLQIPFFCGHSSECWNVGSRWAMDQAKYNLINEYFLVGVTEELEDFIMLLEAALPRFFRGATELYRTGKKSHLHKTTEKKLPTKQTIAKLQQSDIWKMENEFYEFALEQFQFIRAHAVREKDGDLYILAQNFFYEKIYPKSN
modifications: Amino acid sequence encoding for engineered arylsulfate-dependent 2-O-sulfotransferase variant 4
In the case of B6, the “2OST activity: N,2-HS products by MS” value [2] is reported as “confirm the presence of N,2-HS products”.

B7: SEQ ID NO: 56: full-length mutant of isoform 5 of the mouse 3OST enzyme, SEQ ID NO: 24 mutations (protein)
chain: MLFKQQVWLRQKLLVLGSLAVGSLLYLVARVGSLDRLQPICPVESRFGGAHNQAELPLRALQFKRGLLHEFRKGNSSKEQVHLHDLVQQLPKAIIIGVGHGGTRALLEMLNLHPAVVKASQEIHFFDNDENYAKGIEWYRKKMPFSYPQQITIEKSHSYFITEEVPERIYKMNSSIKLLIIVREPTTRAISAYTHMLEGKERKNKTYYKFEKLAIDPNTCEVNTKYVGVRTSIYTKHLERWLKYFPIEQFHIVDGDRLITEPLPELQLVEKFLNLPPRISQYNLYFNATRGFYCLRFNIIFNKCLAGSKGRIHPEVDPSVITKLRKFFHPFNQKFYQITGRTLNWP
modifications: Amino acid sequence encoding for engineered arylsulfate-dependent 3-O-sulfotransferase variant 8
For B7, the “3OST activity: N,2,3,6-HS products” value [1] was “confirm the presence of N,2,3,6-HS products”.

B8: SEQ ID NO: 57: full-length mutant of isoform 5 of the mouse 3OST enzyme, SEQ ID NO: 26 mutations (protein)
chain: MLFKQQVWLRQKLLVLGSLAVGSLLYLVARVGSLDRLQPICPVESRFGGAHNQAELPLRALQFKRGLLHEFRKGNSSKEQVHLHDLVQQLPKAIIIGVGHGGTRALLEMLNLHPAVVKASQEIHFFDNDENYAKGIEWYRKKMPFSYPQQITIEKSHSYFITEEVPERIYKMNSSIKLLIIVREPTTRAISAYTHMLEGKERKNKTYYKFEKLAIDPNTCEVNTKYTGVRTSIYTKHLERWLKYFPIEQFHIVDGDRLITEPLPELQLVEKFLNLPPRISQYNLYFNATRGFYCLRFNIIFNKCLAGSKGRIHPEVDPSVITKLRKFFHPFNQKFYQITGRTLNWP
modifications: Amino acid sequence encoding for engineered arylsulfate-dependent 3-O-sulfotransferase variant 9
In the case of B8, the “3OST activity: N,2,3,6-HS products” value [1] is reported as “confirm the presence of N,2,3,6-HS products”.

B9: SEQ ID NO: 58: full-length mutant of isoform 5 of the mouse 3OST enzyme, SEQ ID NO: 28 mutations (protein)
chain: MLFKQQVWLRQKLLVLGSLAVGSLLYLVARVGSLDRLQPICPVESRFGGAHNQAELPLRALQFKRGLLHEFRKGNSSKEQVHLHDLVQQLPKAIIIGVGHGGTRALLEMLNLHPAVVKASQEIHFFDNDENYAKGIEWYRKKMPFSYPQQITIEKSHSYFITEEVPERIYKMNSSIKLLIIVREPTTRAISLGTHLLEVKERKNKTYYKFEKLAIDPNTCEVNTKYTGVRTSIYTKHLERWLKYFPIEQFHIVDGDRLITEPLPELQLVEKFLNLPPRISQYNLYFNATRGFYCLRFNIIFNKCLAGSKGRIHPEVDPSVITKLRKFFHPFNQKFYQITGRTLNWP
modifications: Amino acid sequence encoding for engineered arylsulfate-dependent 3-O-sulfotransferase variant 10
For B9, the “3OST activity: N,2,3,6-HS products” value [1] was “confirm the presence of N,2,3,6-HS products”.
